This data set deals with OGG1 (UniProt O15527 1-345). Briefly: EMSA. (In general: A gel shift assay detects complexes by their altered migration in electrophoresis.)
Sequence of OGG1 (O15527 whole entry): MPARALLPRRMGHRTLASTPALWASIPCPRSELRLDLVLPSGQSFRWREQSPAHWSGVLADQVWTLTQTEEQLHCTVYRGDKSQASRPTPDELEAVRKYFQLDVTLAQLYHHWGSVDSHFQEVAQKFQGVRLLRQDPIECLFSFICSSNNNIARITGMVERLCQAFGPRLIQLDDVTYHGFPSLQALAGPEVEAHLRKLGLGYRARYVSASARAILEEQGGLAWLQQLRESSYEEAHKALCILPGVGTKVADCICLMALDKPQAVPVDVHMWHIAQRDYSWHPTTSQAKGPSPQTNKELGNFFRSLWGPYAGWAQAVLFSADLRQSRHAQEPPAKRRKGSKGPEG

B1: 8-oxo(d)Gua and NF-kB motif probe (Cxcl2 promoter) (dsDNA)
DNA 1: TTCCCTGGTCCCCGGGCTTTTCCAGACATCG
DNA 2: CGATGTCTGGAAAAGCCCGGGGACCAGGGAA
modifications: 8-oxo-dG in antisense strand, printed CCAG*GGAA (G after the asterisk, position 28)
Take B1: the binding result is reported as “binds”.
